Values quoted from earlier work, collected in PMC5515885.

Molecular target: Nup153 (Homo sapiens) (UniProt P49790)
UniProt P49790, sequence (P49790 2-1475): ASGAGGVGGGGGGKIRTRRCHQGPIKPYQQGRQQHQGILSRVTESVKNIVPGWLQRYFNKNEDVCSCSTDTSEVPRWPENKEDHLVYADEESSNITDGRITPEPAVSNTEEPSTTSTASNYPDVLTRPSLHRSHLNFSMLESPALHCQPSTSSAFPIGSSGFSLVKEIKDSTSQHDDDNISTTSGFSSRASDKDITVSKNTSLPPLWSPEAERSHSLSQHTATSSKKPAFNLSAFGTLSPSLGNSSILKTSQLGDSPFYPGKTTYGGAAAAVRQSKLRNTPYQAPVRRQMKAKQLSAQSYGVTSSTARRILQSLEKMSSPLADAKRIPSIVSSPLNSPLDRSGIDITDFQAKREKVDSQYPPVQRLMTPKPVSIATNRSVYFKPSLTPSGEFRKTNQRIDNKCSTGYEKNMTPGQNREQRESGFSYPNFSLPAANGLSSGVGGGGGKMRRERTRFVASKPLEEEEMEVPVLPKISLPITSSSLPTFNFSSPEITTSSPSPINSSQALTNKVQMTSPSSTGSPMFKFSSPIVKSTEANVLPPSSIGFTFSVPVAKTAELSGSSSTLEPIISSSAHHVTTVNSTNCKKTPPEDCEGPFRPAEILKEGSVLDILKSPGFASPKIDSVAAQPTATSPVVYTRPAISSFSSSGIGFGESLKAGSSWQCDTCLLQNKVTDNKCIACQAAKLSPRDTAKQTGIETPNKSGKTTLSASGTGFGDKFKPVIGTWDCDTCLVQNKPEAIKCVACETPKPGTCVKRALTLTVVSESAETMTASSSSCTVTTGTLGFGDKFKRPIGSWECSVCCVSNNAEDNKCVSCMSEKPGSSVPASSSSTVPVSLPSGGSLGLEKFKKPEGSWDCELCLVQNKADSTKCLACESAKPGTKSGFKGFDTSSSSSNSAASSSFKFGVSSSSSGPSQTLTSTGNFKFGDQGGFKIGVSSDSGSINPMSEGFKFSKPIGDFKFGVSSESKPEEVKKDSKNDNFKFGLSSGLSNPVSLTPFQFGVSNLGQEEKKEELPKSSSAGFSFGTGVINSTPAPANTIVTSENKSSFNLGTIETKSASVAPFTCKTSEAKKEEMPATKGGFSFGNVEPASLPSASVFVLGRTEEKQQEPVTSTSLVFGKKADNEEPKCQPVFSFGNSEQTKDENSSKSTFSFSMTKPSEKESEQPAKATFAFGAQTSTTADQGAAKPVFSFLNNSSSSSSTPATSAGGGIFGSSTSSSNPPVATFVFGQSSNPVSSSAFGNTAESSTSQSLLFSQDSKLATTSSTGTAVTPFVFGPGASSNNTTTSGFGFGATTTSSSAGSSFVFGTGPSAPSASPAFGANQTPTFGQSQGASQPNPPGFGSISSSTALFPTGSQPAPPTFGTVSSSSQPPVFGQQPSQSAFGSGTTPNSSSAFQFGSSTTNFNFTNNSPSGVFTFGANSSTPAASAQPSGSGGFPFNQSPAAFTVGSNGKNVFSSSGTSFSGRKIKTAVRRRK

- Kd: 9 nM
Substance: importin beta (from UniProt Q14974)
